Source: patent US20210380703A1 (RIGEL PHARMACEUTICALS, published 2021)
Residue numbers refer to the chain shown, from its start.

B1: 366_A02 (antibody, V domains shown)
VH: EVQLLESGGGLVQPGGSLRLSCAASGFTFDSYGMNWVRQAPGKGLEWVASINYNSGYKGYADSVKGRFTISRDNSKNTLYLQMNSLRAEDTAVYYCARAANWHDTHLDYWGQGTLVTVSS
VL: DIQMTQSPSSLSASVGDRVTITCRASQSIVSYVNWYQQKPGKAPKLLIYAATSRASGVPSRFSGSGSGTDFTLTISSLQPEDFATYYCQQSYDLPLTFGGGTKVEIK
notes: Group I
B2: 366_G12 (antibody, V domains shown)
VH: B1 VH with D30S, N35H, A49S, S50G, A99G
VL: B1 VL with V30L, V33L, A55H, D93N, L94T
notes: Group III
B3: 366_E07 (antibody, V domains shown)
VH: B1 VH with N35H, S50G, S55G, K58T, G59S, N101T, H106A
VL: B1 VL with V30L, S31T, V33L, L47V, A55H, Y92D, D93N, L94S
notes: Group II
B4: 366_E08 (antibody, V domains shown)
VH: B1 VH with D30S, S31D, G33S, A49S, S50N, S55G, K58T, G59S, A99G
VL: B1 VL with S31T, V33L, A55H, D93S, L94N
notes: Group III
B5: 366_G06 (antibody, V domains shown)
VH: B1 VH with D30S, N35H, S55G, K58T
VL: B1 VL with L47V, L94N
notes: Group I
B6: 367_B11 (antibody, V domains shown)
VH: B1 VH with D30S, S31D, G33S, N35H, S50N, K58T, G59S, H106A
VL: B1 VL with V30L, V33L, L47V, D93S, L94T
notes: Group I
B7: 367_C09 (antibody, V domains shown)
VH: B1 VH with N35H, S55G, K58T, G59S
VL: B1 VL with V30L, L47V, A55H, D93N, L94T
notes: Group I
B8: 367_A08 (antibody, V domains shown)
VH: B1 VH with S50G, S55G, K58T, G59S, A99G
VL: B1 VL with V30L, S31T, V33L, A51V, L94S
notes: Group III
B9: 366_C05 (antibody, V domains shown)
VH: B1 VH with S31D, N35H, A49S, S55G, K58T, N101T
VL: B1 VL with V30I, V33L, L47V, L94S
notes: Group II
B10: 366_H01 (antibody, V domains shown)
VH: B1 VH with S31D, G33S, N35H, S50N, S55G, K58T, G59S, N101T
VL: B1 VL with V30L, S31T, V33L, L47V, A51T, A55H, D93E, L94S
notes: Group II
B11: 367_C06 (antibody, V domains shown)
VH: B1 VH with G33S, N35H, S55G, G59S, N101T
VL: B1 VL with V30L, S31T, V33L, L47V, R54L, A55H, L94T
notes: Group II
B12: 366_F10 (antibody, V domains shown)
VH: B1 VH with G33S, S50G, S55G, K58T
VL: B1 VL with V33L, L47V, L94T
notes: Group I
B13: 366_E01 (antibody, V domains shown)
VH: B1 VH with A49S, S50N, S55G, G59S, A99G
VL: B1 VL with V30L, S31T, V33L, D93S, L94S
notes: Group III
B14: 366_H04 (antibody, V domains shown)
VH: B1 VH with A49S, S50N, S55G, G59S, A99G
VL: B1 VL with V30L, S31T, V33L, D93S, L94S
notes: Group III
B15: 367_C12 (antibody, V domains shown)
VH: B1 VH with D30S, N35H, A49S, S50G, S55G, K58T, G59S, N101T
VL: B1 VL with V30L, A51T, A55H, D93E, L94S
notes: Group II
B16: 367_D11 (antibody, V domains shown)
VH: B1 VH with N35H, A49S, S50N, S55G, G59S, H106A
VL: B1 VL with V30I, V33L, L94S
notes: Group I
B17: 367_A03 (antibody, V domains shown)
VH: B1 VH with S50G, S55G, K58T, G59S, A99G, H106A
VL: B1 VL with V30L, S31T, A51T, A55H, L94S
notes: Group III
B18: 366_G02 (antibody, V domains shown)
VH: B1 VH with N35H, A49S, S55G, K58T, G59S, N101T
VL: B1 VL with V30L, S31T, V33L, A55H, Y92D, L94N
notes: Group II
B19: 366_A04 (antibody, V domains shown)
VH: B1 VH with D30S, S50G, S55G, K58T, G59S, H106A
VL: B1 VL with V30L, S31T, V33L, L47V, R54L, Y92D, L94S
notes: Group I
B20: 367_A06 (antibody, V domains shown)
VH: B1 VH with S55G, A99G
VL: B1 VL with V30L, A55H, L94T
notes: Group III
B21: 367_B09 (antibody, V domains shown)
VH: B1 VH with N35H, S55G, K58T, G59S, H106A
VL: B1 VL with V30L, L47V, D93E, L94N
notes: Group I
B22: 366_B07 (antibody, V domains shown)
VH: B1 VH with D30S, S31D, A49S, S50G, S55G, K58T, G59S, A99G
VL: B1 VL with V33L, L47V, A51T, D93N, L94S
notes: Group III
B23: 366_D01 (antibody, V domains shown)
VH: B1 VH with D30S, N35H, A49S, S55G, K58T
VL: B1 VL with V30L, S31T, D93E, L94N
notes: Group I
B24: 366_B09 (antibody, V domains shown)
VH: B1 VH with D30S, S31D, N35H, A49S, G59S, N101T
VL: B1 VL with V30L, S31T, V33L, L47V, A55H, L94S
notes: Group II
B25: 366_D03 (antibody, V domains shown)
VH: B1 VH with N35H, A49S, S55G, K58T
VL: B1 VL with V30L
notes: Group I
B26: 366_F02 (antibody, V domains shown)
VH: B1 VH with D30S, A49S, S50G, K58T, A99G
VL: B1 VL with V30L, S31T, V33L, L47V, A55H, L94N
notes: Group III

Key:
human ACVR2A = target: T1, human ACVR2A (human, UniProt P27037 20-135, limits assumed); assay: ELISA
T1 construct: also called activin receptor, type II A
T1 sequence (P27037 20-135 limits assumed): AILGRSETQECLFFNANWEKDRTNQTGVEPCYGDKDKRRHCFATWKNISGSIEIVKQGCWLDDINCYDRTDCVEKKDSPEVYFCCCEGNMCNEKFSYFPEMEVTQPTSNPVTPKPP
Summary of the method: (§1)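 mAb binding by ELISA; antigens: hu ACVR2A, mu ACVR2A; pos ctrl biotinylated goat anti-hu kappa LC; neg ctrl hu Fc.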

mouse ACVR2A = mouse ACVR2A (mouse, UniProt P27038 20-135, limits assumed); assay: ELISA
Chain of mouse ACVR2A (P27038 20-135 limits assumed): as the sequence (P27037 20-135 limits assumed) above, with K20R, V73I counted along it
Summary of the method: as §1

[1] = target: T2, biotinylated goat anti-human kappa light chain; assay: ELISA, positive control
T2 construct: positive control of the ELISA
Summary of the method: as §1
Further: test concentration or dose not given here.

Binder | optical density (human ACVR2A) [OD] | optical density (mouse ACVR2A) [OD] | optical density [1] [OD]
B1 | 2.45 | 2.69 | 3.58
B2 | 2.71 | 2.83 | 3.59
B3 | 1.68 | 1.86 | 3.14
B4 | 1.97 | 2 | 3.35
B5 | 2.68 | 2.82 | 3.41
B6 | 2.34 | 2.46 | 3.6
B7 | 2.41 | 2.77 | 3.44
B8 | 2.06 | 2.09 | 3.34
B9 | 2.01 | 2.36 | 3.4
B10 | 2.79 | 2.77 | 3.71
B11 | 2.12 | 2.51 | 3.5
B12 | 2.05 | 2.21 | 3.52
B13 | 2.69 | 2.72 | 3.66
B14 | 2.69 | 2.83 | 3.52
B15 | 2.06 | 2.1 | 3.58
B16 | 2.4 | 2.54 | 3.39
B17 | 2.58 | 2.45 | 3.44
B18 | 2.16 | 2.32 | 3.56
B19 | 1.82 | 1.99 | 3.4
B20 | 2.34 | 2.57 | 3.36
B21 | 2.42 | 2.43 | 3.37
B22 | 1.8 | 1.92 | 3.22
B23 | 2.36 | 2.46 | 3.48
B24 | 2.3 | 2.53 | 3.39
B25 | 2.23 | 2.38 | 3.48
B26 | 2.15 | 2.11 | 3.6
